Assay results published in publication PMC5026484 (eLife, 2016).

B1: bMERB domain (Rab binding domain) of EHBP1 (domain or fragment)
chain: not shown
notes: EHBP1 1047-1231 (bMERB domain with CaaX box) is named for the prenylation and localisation experiments only; also called RBD of EHBP1
B2: bMERB domain (Rab binding domain) of Mical-1, residues 918-1067 (domain or fragment, human, UniProt Q8TDZ2 918-1067, looked up)
chain: KEEEMKRFCKAQTIQRRLNEIEAALRELEAEGVKLELALRRQSSSPEQQKKLWVGQLLQLVDKKNSLVAEEAELMITVQELNLEEKQWQLDQELRGYMNREENLKTAADRQAEDQVLRKLVDLVNQRDALIRFQEERRLSELALGTGAQG
notes: Mical-1, human, bMERB domain, residues 918-1067 (isoform 1); Limits are stated for the crystallised construct; also called Mical-1_(918-1067); RBD of Mical-1
B3: bMERB domain (Rab binding domain) of Mical-3, residues 1841-1990 (domain or fragment, human, UniProt Q7RTP6 1841-1990, looked up)
chain: KQEELKRLHRAQIIQRQLQQVEERQRRLEERGVAVEKALRGEAGMGKKDDPKLMQEWFKLVQEKNAMVRYESELMIFARELELEDRQSRLQQELRERMAVEDHLKTEEELSEEKQILNEMLEVVEQRDSLVALLEEQRLREREEDKDLEA
notes: Mical-3, human, whole predicted bMERB domain, residues 1841-1990 (isoform 1); printed elsewhere as 1841-1992; Limits are stated for the crystallised selenomethionine construct; also called Mical-3_(1841-1990); RBD of Mical-3
B4: bMERB domain (Rab binding domain) of Mical-cL, residues 534-683 (domain or fragment, human, UniProt O94851 1796-1945, looked up)
chain: KQEELKRLYKAQAIQRQLEEVEERQRASEIQGVRLEKALRGEADSGTQDEAQLLQEWFKLVLEKNKLMRYESELLIMAQELELEDHQSRLEQKLREKMLKEESQKDEKDLNEEQEVFTELMQVIEQRDKLVDSLEEQRIREKAEDQHFES
notes: Mical C-terminal like protein (Mical-cL), human, bMERB domain, residues 534-683; Limits are stated for the crystallised construct; also called Mical-cL_(534-683); RBD of Mical-cL
B5: Rab8a, full length, loaded with GppNHp (natural protein, human, UniProt P61006 1-207, looked up)
chain: MAKTYDYLFKLLLIGDSGVGKTCVLFRFSEDAFNSTFISTIGIDFKIRTIELDGKRIKLQIWDTAGQERFRTITTAYYRGAMGIMLVYDITNEKSFDNIRNWIRNIEEHASADVEKMILGNKCDVNDKRQVSKERGEKLALDYGIKFMETSAKANINVENAFFTLARDIKAKMDKKLEGNSPQGSNQGVKITPDQQKRSSFFRCVLL
notes: Rab8a, human; called Rab8 in the results and Rab8aFl in the crystallisation methods; also called Rab8aFl; source: expressed and purified as described previously (Bleimling et al., 2009), loaded with GppNHp, gel filtration

How the values were obtained:
[1] = molecular target: B5; assay: ITC; iTC200, 25°C; 400 µM Rab titrated into 20–40 µM bMERB domain in the cell; 20 mM Hepes pH 7.5, 50 mM NaCl, 2 mM MgCl2, 1 mM TCEP; details: both partners purified
Rab10 residues 1-175 = molecular target: T1, Rab10 residues 1-175 (human, UniProt P61026 1-175); assay: crystal structure; X-ray; sitting/hanging-drop vapour diffusion, 20°C; data from beamline X10SA, SLS; details: both partners purified
T1 construct: Rab10, human, residues 1-175; Used for the crystal of the 2:1 complex with Mical-1 918-1067; also called Rab10_(1-175); source: expressed and purified as described previously (Bleimling et al., 2009)
T1 sequence (looked up): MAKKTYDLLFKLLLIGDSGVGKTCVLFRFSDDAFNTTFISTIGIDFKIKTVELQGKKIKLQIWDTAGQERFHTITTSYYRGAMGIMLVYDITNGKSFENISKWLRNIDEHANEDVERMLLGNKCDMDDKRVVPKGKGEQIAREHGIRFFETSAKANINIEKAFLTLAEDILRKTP

[2] = molecular target: B5; assay: SEC; analytical size exclusion chromatography, Superdex S75 10/300 GL; 130 µM Rab:GppNHp + 112.5 µM (113 µM) bMERB domain; 20 mM Hepes pH 7.5, 50 mM NaCl, 2 mM DTE, 2 mM MgCl2; details: both partners purified
[3] = molecular target: T2, Rab10, full length, loaded with GppNHp (human, UniProt P61026 1-200); assay: as above; details: both partners purified
T2 construct: Rab10, human; Rab10Fl in the crystallisation methods; also called Rab10Fl; source: expressed and purified as described previously (Bleimling et al., 2009), loaded with GppNHp, gel filtration
T2 sequence (looked up): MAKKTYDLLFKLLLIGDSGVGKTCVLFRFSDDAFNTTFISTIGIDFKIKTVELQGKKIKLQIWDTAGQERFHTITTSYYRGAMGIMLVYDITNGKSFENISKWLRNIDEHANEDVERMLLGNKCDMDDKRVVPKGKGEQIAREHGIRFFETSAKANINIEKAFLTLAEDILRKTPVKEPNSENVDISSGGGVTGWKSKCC

[4] = molecular target: the molecule itself; assay: SEC; analytical size exclusion chromatography of the bMERB domain alone (112.5 µM); apparent size from the retention
[5] = molecular target: B5; assay: ITC; iTC200, 25°C; 400 µM Rab titrated into 20–40 µM bMERB domain in the cell; 20 mM Hepes pH 7.5, 50 mM NaCl, 2 mM MgCl2, 1 mM TCEP; details: both partners purified; remark: listed apart in the source
[6] = molecular target: T3, Rab13, loaded with GppNHp (UniProt P51153 1-203); assay: as above; details: both partners purified
T3 construct: Rab13; also called Rab13:GppNHp; source: expressed and purified as described previously (Bleimling et al., 2009), loaded with GppNHp, gel filtration
T3 sequence (looked up): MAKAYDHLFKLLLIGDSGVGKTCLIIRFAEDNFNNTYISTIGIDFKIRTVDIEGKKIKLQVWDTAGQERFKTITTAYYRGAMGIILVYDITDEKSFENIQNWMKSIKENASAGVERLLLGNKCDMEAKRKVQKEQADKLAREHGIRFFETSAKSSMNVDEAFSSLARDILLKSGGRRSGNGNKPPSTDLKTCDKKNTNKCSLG

[7] = molecular target: T2, Rab10, full length, loaded with GppNHp; assay: as above; details: both partners purified
[8] = molecular target: T3, Rab13, loaded with GppNHp; assay: as above; details: both partners purified; remark: listed apart in the source
[9] = molecular target: T4, Rab15, loaded with GppNHp (UniProt P59190 1-212); assay: as above; details: both partners purified
T4 construct: Rab15; source: expressed and purified as described previously (Bleimling et al., 2009), loaded with GppNHp, gel filtration
T4 sequence (looked up): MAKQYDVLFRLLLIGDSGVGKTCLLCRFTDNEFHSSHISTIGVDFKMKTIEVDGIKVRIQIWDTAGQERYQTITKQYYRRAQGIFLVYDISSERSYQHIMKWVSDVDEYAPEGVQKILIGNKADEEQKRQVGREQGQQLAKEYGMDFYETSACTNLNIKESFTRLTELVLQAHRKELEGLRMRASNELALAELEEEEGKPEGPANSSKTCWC

[10] = molecular target: B3; assay: as above; details: both partners purified
[11] = molecular target: B4; assay: as above; details: both partners purified
[12] = molecular target: B1; assay: as above; details: both partners purified
[13] = molecular target: T5, bMERB domain (Rab binding domain) of EHBP1L1 (human, UniProt Q8N3D4 1340-1523); assay: as above; details: both partners purified
T5 construct: EHBP1L1, human, bMERB domain; EHBP1L1 1340-1523 (bMERB domain with CaaX box) is named for the prenylation and localisation experiments only; also called RBD of EHBP1L1
T5 sequence (Q8N3D4 1340-1523): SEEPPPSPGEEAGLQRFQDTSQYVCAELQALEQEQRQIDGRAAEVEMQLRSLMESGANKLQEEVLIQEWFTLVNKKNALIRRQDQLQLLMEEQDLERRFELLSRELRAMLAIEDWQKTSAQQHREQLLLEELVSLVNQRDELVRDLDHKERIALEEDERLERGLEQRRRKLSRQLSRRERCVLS

[14] = molecular target: B2; assay: as above; details: both partners purified
[15] = molecular target: B3; assay: as above; details: both partners purified; remark: listed apart in the source
[16] = molecular target: T5, bMERB domain (Rab binding domain) of …; assay: as above; details: both partners purified; remark: listed apart in the source
[17] = molecular target: B2; assay: as above; details: both partners purified; remark: listed apart in the source
[18] = molecular target: B3; assay: SEC; analytical size exclusion chromatography with varying ratios of Rab8 and bMERB domain (1.2:1, 1.6:1, 2.2:1; effector 113 µM, Rab 130, 180 or 250 µM); stoichiometry from the peak of free excess Rab8; details: both partners purified

Binder: B1
- Kd [1]: 397 nM

Binder: B2
- binding result (Rab10 residues 1-175): binds
- binding result [2]: binds
- binding result [3]: binds

Binder: B3
- stoichiometry N [4]: 2
- binding result [2]: binds
- binding result [3]: binds

Binder: B4
- stoichiometry N [4]: 2
- Kd [5]: 233 nM
- Kd [6]: 93 nM
- Kd [1]: 253 nM
- Kd [7]: 790 nM
- Kd [8]: 94 nM
- Kd [9]: 33 nM

Binder: B5
- stoichiometry N [10]: 2
- stoichiometry N [11]: 1
- stoichiometry N [12]: 1
- stoichiometry N [13]: 2
- stoichiometry N [14]: 2
- KD,1 (two-site fit) [15]: 27.9 nM
- KD,1 (two-site fit) [16]: 159 nM
- KD,1 (two-site fit) [17]: 55.5 nM
- stoichiometry N [18]: 1
